From PMC9163039 come the findings set out here.

The target in this experiment is mRuby2-Tau (human Tau full length) (human) (UniProt P10636). Nature of the experiment: FRET or BRET; FLIM-FRET (clover donor lifetime) in living SH-SY5Y cells after hyperosmotic stress (sucrose); only pixels belonging to BAG2 condensates fitted. A general note: Bioluminescence resonance energy transfer reports proximity on the nanometre scale.
Sequence of UniProt P10636 (P10636 2-758): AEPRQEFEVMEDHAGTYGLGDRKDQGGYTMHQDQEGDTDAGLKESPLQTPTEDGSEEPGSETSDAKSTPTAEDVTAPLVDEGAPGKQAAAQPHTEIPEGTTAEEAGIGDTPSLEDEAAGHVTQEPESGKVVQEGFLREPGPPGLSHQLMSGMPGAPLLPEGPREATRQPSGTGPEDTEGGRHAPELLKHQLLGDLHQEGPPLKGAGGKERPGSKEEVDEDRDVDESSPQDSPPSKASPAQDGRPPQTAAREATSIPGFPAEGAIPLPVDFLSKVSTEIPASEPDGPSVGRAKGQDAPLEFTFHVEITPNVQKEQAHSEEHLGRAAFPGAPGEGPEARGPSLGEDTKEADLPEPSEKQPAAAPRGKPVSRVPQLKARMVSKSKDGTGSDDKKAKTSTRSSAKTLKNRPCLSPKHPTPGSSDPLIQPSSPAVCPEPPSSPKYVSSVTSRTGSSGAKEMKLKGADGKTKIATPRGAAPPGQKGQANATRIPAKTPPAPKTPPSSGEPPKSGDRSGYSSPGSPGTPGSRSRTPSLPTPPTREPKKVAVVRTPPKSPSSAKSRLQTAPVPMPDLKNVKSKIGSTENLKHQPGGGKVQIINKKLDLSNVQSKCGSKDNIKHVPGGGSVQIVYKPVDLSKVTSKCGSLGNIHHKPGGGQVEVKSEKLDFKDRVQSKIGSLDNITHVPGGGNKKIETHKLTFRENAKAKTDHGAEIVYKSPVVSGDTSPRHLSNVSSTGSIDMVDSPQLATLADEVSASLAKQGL

In the case of “mClover2-BAG2 (Bcl2-associated athanogene 2, full length) (from UniProt O95816 1-211) (natural protein)”, the fluorescence lifetime of the donor (FLIM-FRET), pixels of BAG2 condensates after stress came to 2.8 ns.
